Measured values as given in patent US20030143692A1, “Methods and compositions for modulating integrin-mediated cell-cell interactions” (priority 2000, published 2003).

Key:
[1] = tested on: NB100 human neuroblastoma cells; experiment: Cell adhesion assay on coated wells, NB100 cells; type: cell-based; settings: for cell adhesion to wells coated with the protein: bound cells stained and quantified
Description: Cell adhesion assays were performed in accordance with procedures described by Luque et al. (FEBS Lett 1994 346:278-284). In these assays, 96-well immunoplates (MaxiSorp, Nunc, Denmark) were coated with 0.1 ml of PBS containing different amounts of BSA, glutathione S-transferase (GST), and ADAM 23/GST. After incubating 16 hours at 4° C., wells were blocked with DMEM containing 2.5% BSA, for 2 hours at 37° C. Then, NB100 neuroblastoma cells (approximately 50,000 cells per well) were added in Dulbecco's modified Eagle's medium (DMEM) supplemented with 1% BSA and incubated at 37° C. for 2 hours. For experiments directed to analyze the effect of divalent cations, the cells were washed three times in PBS, and resuspended in the same buffer supplemented either with 1 mM MgCl2, 50 μM MnCl2, 1 mM CaCl2, or 1 mM MgCl2 plus 5 mM EDTA. Non-bound cells were removed by rinsing the wells with serum-free medium, whereas bound cells were fixed with methanol and stained with Giemsa. Cells were counted per unit area with the aid of an inverted light microscope, using a 20× high powered objective and an ocular grid. For inhibition studies cells were pretreated for 30 minutes before the addition to the coated wells of mAb LM 609 (used at 1:400 dilution of ascites) or synthetic peptides (20 or 40 μg/ml) corresponding to the disintegrin loop of ADAM 23 (AVNEDCDIT, peptide 330 (SEQ ID NO:1)) or a “scrambled” peptide (DCVTNIAE, peptide 331 (SEQ ID NO:4)). In all cases, experimental treatments were performed in triplicate with a minimum of three areas counted per well.

endothelial cells = experiment: Murine MATRIGEL plug angiogenesis model; type: in vivo, female athymic (BALB/c nu/nu) mice
Description: The angiogenic activity of ADAM 23 was evaluated in the murine MATRIGEL plug angiogenesis model. On day 0, ice-cold MATRIGEL (Becton-Dickinson, Bedford, Mass.) containing either vascular endothelial growth factor (VEGF, Pepro Tech, Inc., Rocky Hill, N.J.), basic fibroblast growth factor (bFGF, Pepro Tech, Inc., Rocky Hill, N.J.), […], saline buffer (PBS) or recombinant ADAM 23 disintegrin domain (dd) expressed as a GST fusion protein (GST-ADAM23dd) was implanted subcutaneously in female athymic (BALB/c nu/nu; Harlan, Indianapolis, Ind.) mice. The MATRIGEL polymerized immediately after implantation into mice forming a gel plug. On day 7, individual MATRIGEL plugs were harvested, fixed in 10% buffered formalin, embedded in paraffin, sectioned, and stained with hematoxylin-eosin. The number of endothelial cells present in each plug section was measured using a video imaging system (Image Pro-Plus, Empire Imaging, Princeton, N.J.). Fifty fields (at 20×) per plug section were randomly counted. Data are presented as “Average Number of Migrating Cells” and the p-value was determined using a two-tailed Student T-Test.

[2] = tested on: ADAM 23 mediated adhesion of NB100 neuroblastoma cells; experiment: Inhibition of ADAM 23 mediated adhesion of NB100 cells; type: cell-based, human; settings: NB100 cells incubated with peptide (20 or 40 μg/ml) prior to seeding
Description: Cell adhesion assays were performed in accordance with procedures described by Luque et al. (FEBS Lett 1994 346:278-284). In these assays, 96-well immunoplates (MaxiSorp, Nunc, Denmark) were coated with 0.1 ml of PBS containing different amounts of BSA, glutathione S-transferase (GST), and ADAM 23/GST. After incubating 16 hours at 4° C., wells were blocked with DMEM containing 2.5% BSA, for 2 hours at 37° C. Then, NB100 neuroblastoma cells (approximately 50,000 cells per well) were added in Dulbecco's modified Eagle's medium (DMEM) supplemented with 1% BSA and incubated at 37° C. for 2 hours. For experiments directed to analyze the effect of divalent cations, the cells were washed three times in PBS, and resuspended in the same buffer supplemented either with 1 mM MgCl2, 50 μM MnCl2, 1 mM CaCl2, or 1 mM MgCl2 plus 5 mM EDTA. Non-bound cells were removed by rinsing the wells with serum-free medium, whereas bound cells were fixed with methanol and stained with Giemsa. Cells were counted per unit area with the aid of an inverted light microscope, using a 20× high powered objective and an ocular grid. […] In all cases, experimental treatments were performed in triplicate with a minimum of three areas counted per well.

HT1080 = experiment: Cell adhesion assay on coated wells, HT1080 cells; type: cell-based
HeLa = experiment: Cell adhesion assay on coated wells, HeLa cells; type: cell-based
T47D = experiment: Cell adhesion assay on coated wells, T47D cells; type: cell-based
α1β1 = molecular target: T1, α1β1 (Homo sapiens, UniProt P05556+P56199); experiment: Sepharose bead binding of purified integrin (SDS-PAGE / Western blot)
T1 construct: purchased Chemicon International Inc., Temecula, Calif
T1 sequence (P56199 29-1179): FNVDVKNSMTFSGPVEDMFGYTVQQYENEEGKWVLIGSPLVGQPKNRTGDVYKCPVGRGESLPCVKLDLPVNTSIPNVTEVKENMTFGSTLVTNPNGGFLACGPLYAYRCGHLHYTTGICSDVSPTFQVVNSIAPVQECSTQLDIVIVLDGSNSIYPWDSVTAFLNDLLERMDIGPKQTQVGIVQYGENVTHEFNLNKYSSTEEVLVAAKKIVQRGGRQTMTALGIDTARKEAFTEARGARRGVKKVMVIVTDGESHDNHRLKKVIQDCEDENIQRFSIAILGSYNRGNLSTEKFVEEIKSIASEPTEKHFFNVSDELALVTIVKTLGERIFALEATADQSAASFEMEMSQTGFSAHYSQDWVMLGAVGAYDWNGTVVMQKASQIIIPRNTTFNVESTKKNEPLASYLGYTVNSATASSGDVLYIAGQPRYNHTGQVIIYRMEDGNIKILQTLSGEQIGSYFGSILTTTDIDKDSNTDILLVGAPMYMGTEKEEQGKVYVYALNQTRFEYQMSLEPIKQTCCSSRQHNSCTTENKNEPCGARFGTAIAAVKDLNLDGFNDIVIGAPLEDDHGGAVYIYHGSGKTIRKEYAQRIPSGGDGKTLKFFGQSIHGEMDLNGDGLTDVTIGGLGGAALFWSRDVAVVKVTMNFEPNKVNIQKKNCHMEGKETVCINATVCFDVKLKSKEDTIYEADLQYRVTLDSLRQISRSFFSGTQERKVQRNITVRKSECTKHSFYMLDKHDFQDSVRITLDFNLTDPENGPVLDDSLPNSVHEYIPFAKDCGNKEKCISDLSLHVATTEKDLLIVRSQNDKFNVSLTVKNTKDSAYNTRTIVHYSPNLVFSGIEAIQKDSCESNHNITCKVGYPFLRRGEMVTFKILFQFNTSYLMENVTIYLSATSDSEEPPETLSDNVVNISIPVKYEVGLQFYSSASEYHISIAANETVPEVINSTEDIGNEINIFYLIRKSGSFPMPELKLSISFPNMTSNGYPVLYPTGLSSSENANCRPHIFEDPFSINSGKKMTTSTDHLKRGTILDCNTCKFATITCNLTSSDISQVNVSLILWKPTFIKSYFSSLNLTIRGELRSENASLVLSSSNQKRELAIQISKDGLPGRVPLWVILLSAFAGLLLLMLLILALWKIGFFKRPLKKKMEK
T1 sequence (P05556 21-798): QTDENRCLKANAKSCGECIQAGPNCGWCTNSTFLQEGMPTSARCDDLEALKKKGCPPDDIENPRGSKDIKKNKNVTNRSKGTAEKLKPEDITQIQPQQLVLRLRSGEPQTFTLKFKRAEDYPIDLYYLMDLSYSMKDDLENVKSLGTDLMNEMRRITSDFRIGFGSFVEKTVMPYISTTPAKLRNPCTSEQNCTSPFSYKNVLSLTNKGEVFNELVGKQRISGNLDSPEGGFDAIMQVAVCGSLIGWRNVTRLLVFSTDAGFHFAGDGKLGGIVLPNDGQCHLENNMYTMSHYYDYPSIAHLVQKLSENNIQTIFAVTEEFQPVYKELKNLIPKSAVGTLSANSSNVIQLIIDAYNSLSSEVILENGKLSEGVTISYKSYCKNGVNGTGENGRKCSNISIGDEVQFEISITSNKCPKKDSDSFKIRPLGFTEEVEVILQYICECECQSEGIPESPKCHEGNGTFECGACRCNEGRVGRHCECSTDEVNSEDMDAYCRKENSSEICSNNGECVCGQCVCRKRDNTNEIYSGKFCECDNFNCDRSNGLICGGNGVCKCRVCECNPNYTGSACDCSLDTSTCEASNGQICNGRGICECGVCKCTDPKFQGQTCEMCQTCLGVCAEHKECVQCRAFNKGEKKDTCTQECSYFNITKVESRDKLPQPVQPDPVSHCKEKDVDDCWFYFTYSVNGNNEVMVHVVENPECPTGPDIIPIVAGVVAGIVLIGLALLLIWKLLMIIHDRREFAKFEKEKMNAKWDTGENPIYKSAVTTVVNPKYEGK
Description: (§1) Purified integrins ([…] αvβ3, α1β1 or α5β1) (Chemicon International Inc., Temecula, Calif.) were incubated with Sepharose 4B beads containing 0.5 μg of disintegrin-GST, in a buffer containing 50 mM Tris-HCl, 200 mM NaCl and 0.2 mM MnCl2 (pH 7.4), for 4 hours at 37° C. After incubation, beads were washed six times with 200 μl of the same buffer to remove unbound protein. Beads were then resuspended in Laemmli buffer and after boiling, solubilized proteins were loaded in a 6% SDS-PAGE gel, and visualized by silver staining. Alternatively, samples were blotted to a nitrocellulose membrane and the presence of αv or β3 integrin subunits was detected using polyclonal antibodies raised against these subunits. Similarly, the putative presence of β1 integrin subunits was examined with the B3B11 monoclonal antibody (Chemicon International Inc.). Western-blots were visualized by enhanced chemiluminescence according to the manufacturer s instructions (ECL, Amersham).

α5β1 = molecular target: T2, α5β1 (Homo sapiens, UniProt P05556+P08648); experiment: as above
T2 construct: purchased Chemicon International Inc., Temecula, Calif
T2 sequence (P08648 42-894 limits assumed): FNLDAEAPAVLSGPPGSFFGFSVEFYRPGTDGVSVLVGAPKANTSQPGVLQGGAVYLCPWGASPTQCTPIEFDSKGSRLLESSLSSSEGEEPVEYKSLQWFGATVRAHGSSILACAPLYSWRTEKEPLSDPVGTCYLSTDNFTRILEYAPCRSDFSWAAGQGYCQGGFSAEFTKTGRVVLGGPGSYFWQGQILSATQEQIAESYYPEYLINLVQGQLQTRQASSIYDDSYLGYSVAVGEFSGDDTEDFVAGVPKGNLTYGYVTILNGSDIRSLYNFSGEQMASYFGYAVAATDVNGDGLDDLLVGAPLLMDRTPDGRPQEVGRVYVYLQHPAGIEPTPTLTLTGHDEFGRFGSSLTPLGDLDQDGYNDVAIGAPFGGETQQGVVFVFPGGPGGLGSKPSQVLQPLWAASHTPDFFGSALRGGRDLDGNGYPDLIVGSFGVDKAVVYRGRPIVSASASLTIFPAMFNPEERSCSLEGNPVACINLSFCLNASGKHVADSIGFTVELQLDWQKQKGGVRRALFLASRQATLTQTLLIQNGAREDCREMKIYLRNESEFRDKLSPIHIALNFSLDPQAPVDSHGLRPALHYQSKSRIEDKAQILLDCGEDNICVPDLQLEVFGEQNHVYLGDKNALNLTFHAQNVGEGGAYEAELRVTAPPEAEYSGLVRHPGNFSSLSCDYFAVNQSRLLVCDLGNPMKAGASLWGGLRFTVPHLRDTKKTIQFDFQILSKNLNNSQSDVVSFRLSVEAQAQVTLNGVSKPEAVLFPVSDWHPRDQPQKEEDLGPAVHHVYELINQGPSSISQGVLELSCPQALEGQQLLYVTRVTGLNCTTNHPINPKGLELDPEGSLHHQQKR
T2 sequence (P08648 895-1049 partner limits assumed): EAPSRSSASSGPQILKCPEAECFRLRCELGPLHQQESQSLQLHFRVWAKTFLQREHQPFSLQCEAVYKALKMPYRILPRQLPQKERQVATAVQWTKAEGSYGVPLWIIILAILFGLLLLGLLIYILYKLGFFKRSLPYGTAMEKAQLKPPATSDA
T2 sequence (P05556 21-798): as the sequence (P05556 21-798) above
Description: as §1

αvβ3 integrin = molecular target: T3, αvβ3 integrin (Homo sapiens, UniProt P05106+P06756); experiment: as above; settings: confirmed by Western blot
T3 construct: purchased Chemicon International Inc., Temecula, Calif
T3 sequence (P06756 31-889 limits assumed): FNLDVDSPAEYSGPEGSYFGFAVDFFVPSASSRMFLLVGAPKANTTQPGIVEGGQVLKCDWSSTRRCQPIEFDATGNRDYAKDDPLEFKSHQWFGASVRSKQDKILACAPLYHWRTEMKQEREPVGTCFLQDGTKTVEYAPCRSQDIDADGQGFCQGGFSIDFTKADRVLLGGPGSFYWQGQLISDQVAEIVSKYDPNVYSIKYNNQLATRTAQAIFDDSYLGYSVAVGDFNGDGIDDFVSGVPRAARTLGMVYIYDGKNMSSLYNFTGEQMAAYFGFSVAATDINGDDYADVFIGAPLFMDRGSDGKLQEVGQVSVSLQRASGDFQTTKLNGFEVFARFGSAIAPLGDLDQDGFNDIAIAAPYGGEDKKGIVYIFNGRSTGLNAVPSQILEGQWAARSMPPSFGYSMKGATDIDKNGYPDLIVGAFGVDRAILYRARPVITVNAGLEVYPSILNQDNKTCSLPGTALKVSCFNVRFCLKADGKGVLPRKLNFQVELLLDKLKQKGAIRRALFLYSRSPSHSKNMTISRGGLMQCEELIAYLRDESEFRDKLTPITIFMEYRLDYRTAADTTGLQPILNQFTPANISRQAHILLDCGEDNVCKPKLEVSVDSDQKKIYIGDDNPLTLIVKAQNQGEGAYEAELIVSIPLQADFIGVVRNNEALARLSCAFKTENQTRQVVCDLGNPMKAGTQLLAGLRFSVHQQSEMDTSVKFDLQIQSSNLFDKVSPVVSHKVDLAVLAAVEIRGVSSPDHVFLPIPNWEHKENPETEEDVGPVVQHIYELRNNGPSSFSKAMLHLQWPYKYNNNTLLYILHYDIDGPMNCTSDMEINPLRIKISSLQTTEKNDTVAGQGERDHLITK
T3 sequence (P06756 891-1048 partner limits assumed): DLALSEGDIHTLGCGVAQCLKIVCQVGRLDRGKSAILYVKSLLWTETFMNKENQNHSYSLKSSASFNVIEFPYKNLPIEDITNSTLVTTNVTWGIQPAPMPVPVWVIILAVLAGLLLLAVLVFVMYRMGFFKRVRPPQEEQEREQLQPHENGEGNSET
T3 sequence (P05106 27-788): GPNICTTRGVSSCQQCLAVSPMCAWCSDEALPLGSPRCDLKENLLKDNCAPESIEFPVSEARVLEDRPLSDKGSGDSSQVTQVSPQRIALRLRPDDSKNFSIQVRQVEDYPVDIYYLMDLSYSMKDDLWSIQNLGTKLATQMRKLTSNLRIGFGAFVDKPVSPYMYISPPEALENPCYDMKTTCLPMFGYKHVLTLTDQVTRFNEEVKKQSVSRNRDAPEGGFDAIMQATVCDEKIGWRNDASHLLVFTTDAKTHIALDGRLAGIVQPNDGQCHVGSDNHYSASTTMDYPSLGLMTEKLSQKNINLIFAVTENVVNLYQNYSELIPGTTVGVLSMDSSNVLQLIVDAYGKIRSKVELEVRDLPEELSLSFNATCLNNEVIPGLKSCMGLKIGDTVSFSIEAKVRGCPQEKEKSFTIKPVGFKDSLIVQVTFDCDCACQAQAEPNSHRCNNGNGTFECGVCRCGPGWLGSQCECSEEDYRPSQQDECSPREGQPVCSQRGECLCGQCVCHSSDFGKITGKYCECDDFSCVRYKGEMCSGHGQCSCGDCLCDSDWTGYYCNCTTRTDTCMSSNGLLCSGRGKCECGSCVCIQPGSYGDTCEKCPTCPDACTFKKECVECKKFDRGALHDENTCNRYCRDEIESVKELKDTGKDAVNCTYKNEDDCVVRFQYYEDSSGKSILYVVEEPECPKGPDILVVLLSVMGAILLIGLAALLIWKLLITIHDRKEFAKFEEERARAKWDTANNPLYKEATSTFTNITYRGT
Description: as §1

## GST: glutathione S-transferase, control protein for the fusion protein [reference compound]
[1]
  cell adhesion to wells coated with the protein: did not support any significant cell adhesion
Endothelial cells; subcutaneous plug, harvested day 7
  angiogenic response (cells in MATRIGEL plug sections): a significant number of cells was not observed

## albumin: albumin used as control coating of wells [reference compound]
[1]
  cell adhesion to wells coated with the protein: did not support any significant cell adhesion

## fibronectin [reference compound]
[1]
  cell adhesion to wells coated with the protein: promoted cell adhesion

## DCVTNIAE [pep331, reference compound]
[2]
  effect of peptide on adherent cells on plates containing ADAM 23: this effect was not observed

## AVNECDIT [pep330]
[2]
  effect of peptide on adherent cells on plates containing ADAM 23: significant loss of adherent cells

B1: ADAM 23-GST: recombinant ADAM 23 disintegrin domain expressed as a GST fusion protein in E. coli, about 40 kDa (protein)
chain: KLFEPTECGNGYVEAGEECDCGFHVECYGLCCKKCSLSNGAHCSDGPCCNNTSCLFQPRGYECRDAVNECDITEYCTGDSGQCPPNLHKQD
modifications: left off: a dimerising Fc or GST
notes: recombinant ADAM 23 disintegrin domain expressed as a GST fusion protein in E. coli, about 40 kDa
[1]
  dose dependence of ADAM 23-promoted cell adhesiveness: dose-dependent
  cell adhesion to wells coated with the protein: promoted cell adhesion
[1]; Mn2+ and Mg2+
  attachment of cells in the presence of divalent cations: stimulated
HT1080
  ADAM 23-mediated adhesion: no significant ADAM 23-mediated adhesion
HeLa
  ADAM 23-mediated adhesion: no significant ADAM 23-mediated adhesion
T47D
  ADAM 23-mediated adhesion: no significant ADAM 23-mediated adhesion
α1β1
  interaction with purified integrin: did not reveal any evidence of interaction
α5β1
  interaction with purified integrin: did not reveal any evidence of interaction
αvβ3 integrin
  bound αvβ3 integrin (αv and β3 bands) on protein-containing beads: detected
Endothelial cells; 4, 20.5 or 61.5 μg/plug, day 7
  dose dependence of angiogenic response: dose-dependent
Endothelial cells; day 7, hematoxylin-eosin
  cell types in plug sections (microscopic histologic analyses): both endothelial and smooth muscle cells were present
